The text below walks through data of patent US20130143802A1.

Assay [1] concerns the target interleukin 1 receptor (on human peripheral blood leukocytes RPMI 1788) (human (cells are stated to be human)) (UniProt P14778). Put plainly: cell-based or functional assay.
The next assay deals with alpha-amylase. Nature of the assay: cell-based or functional assay.

Chain of UniProt P14778 (P14778 18-569): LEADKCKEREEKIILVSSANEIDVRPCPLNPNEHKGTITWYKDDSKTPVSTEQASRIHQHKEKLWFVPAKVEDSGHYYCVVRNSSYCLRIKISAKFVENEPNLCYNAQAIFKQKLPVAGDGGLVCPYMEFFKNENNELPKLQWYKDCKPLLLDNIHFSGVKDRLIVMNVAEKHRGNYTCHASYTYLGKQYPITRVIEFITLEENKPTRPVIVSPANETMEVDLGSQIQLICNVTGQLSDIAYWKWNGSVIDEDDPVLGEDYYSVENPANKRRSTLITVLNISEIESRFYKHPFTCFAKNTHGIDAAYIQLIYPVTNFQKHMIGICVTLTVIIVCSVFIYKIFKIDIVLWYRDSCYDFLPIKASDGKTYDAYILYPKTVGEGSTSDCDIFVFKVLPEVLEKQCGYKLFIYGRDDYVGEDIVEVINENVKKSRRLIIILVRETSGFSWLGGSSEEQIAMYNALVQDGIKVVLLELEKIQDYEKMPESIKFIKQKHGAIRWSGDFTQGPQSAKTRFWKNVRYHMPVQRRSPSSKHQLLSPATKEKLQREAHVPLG

In assay [1], “ELP/IL-1Ra fusion protein (ELP1 [V5A2G3-90] - … - interleukin 1 receptor antagonist) (from UniProt P18510 26-177)” returned a specific activity: EC50 value in µg/mL, inhibition of proliferation of RPMI 1788 cells (CellTiter Glo assay) of 0.5 µg/mL.

In assay [1], “IL-1Ra/ELP fusion protein (interleukin 1 receptor antagonist - … - ELP1 [V5A2G3-90]) (from UniProt P18510 26-177)” had a potency relative to ELP/IL-1Ra in the cell proliferation assay of 4 fold and a specific activity: EC50 value in µg/mL, inhibition of proliferation of RPMI 1788 cells (CellTiter Glo assay) of 2 µg/mL.

Take “ternary thioredoxin-ELP-tendamistat fusion (thioredoxin/90-mer ELP/tendamistat) (from UniProt P01092 31-104)”: the α-amylase inhibition activity (colorimetric α-amylase inhibition assay) with alpha-amylase came to 2 fold.

In the case of “un-fused, commercially available interleukin 1 receptor antagonist (from UniProt P18510 26-177) (ligand)”, in assay [1], the EC50, inhibition of proliferation of RPMI 1788 cells (CellTiter Glo assay) is 0.0016 µg/mL and the activity relative to IL-1Ra/ELP in the cell proliferation assay was 300 fold.
